{"source": "patent US20230125550A1", "about": "(ARCELLX, published 2023)", "data": [{"molecular_target": "T1, recombinant human CD123-Fc (human, UniProt P26951 19-305)", "T1 construct": "not shown: Fc part of CD123-Fc", "T1 sequence": "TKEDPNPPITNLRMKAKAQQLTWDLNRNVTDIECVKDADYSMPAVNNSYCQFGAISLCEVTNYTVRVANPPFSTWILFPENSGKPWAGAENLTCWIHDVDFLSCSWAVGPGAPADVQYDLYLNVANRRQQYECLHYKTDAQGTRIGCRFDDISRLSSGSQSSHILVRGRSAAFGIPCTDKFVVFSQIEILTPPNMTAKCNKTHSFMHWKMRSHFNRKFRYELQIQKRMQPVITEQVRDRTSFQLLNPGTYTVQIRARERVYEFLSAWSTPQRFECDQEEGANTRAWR", "experiment": "phage ELISA, captured CD123-Fc", "how_it_was_run": "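Readout is the clone-averaged A450 ratio of target-Fc over IgG1-Fc wells, detected with HRP-conjugated anti-M13. Each Fc protein (5 nM) was captured on goat anti-human IgG1-Fc-coated plates. Phage were rescued with VCSM13 from BCMA-panning colonies and added at 5× dilution.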", "units": {"ELISA_avg": "ratio A450 target/IgG1-Fc"}, "values": [{"binder": "SEQ ID NO: 580 (designed binder, D domain, on phage) MGSWIEFFHRLDAIQDRLDALGGSEAELAYFEWAIADFEHMLQLYKGKGNPEVEALQFEAFAIEGELYAYRHN", "ELISA_avg": 3.5}, {"binder": "SEQ ID NO: 581 (designed binder, D domain, on phage) MGSWYEFSSRLNAIDDRLWALGGSEAELAYFETDIADFESLLQWYKGKGNPEVEALLNEADAIDYELYAYRHN", "ELISA_avg": 3.8}, {"binder": "SEQ ID NO: 597 (designed binder, D domain, on phage) MGSWWEFDSRLDAIDFRLWALGGSEAELAWFEVEIADFEDWLQLYKGKGNPEVEALWHEADAIVTELYAYRHN", "ELISA_avg": 3.2}, {"binder": "SEQ ID NO: 570 (designed binder, D domain, on phage) MGSWSEFVDRLDAIFDRLWALGGSEAELAWFEDTIAHFEWNLQEYKGKGNPEVEALNGEADAITDELHAYRHN", "ELISA_avg": 5.3}, {"binder": "SEQ ID NO: 583 (designed binder, D domain, on phage) MGSWLEFEYRLDAIYDRLFALGGSEAELAAFEQDIADFEKYLQYYKGKGNPEVEALWEEADAIMWELFAYRHN", "ELISA_avg": 3.1}, {"binder": "SEQ ID NO: 592 (designed binder, D domain, on phage) MGSWFEFDDRLEAIFDRLWALGGSEAELAMFEFAIAEFEDALQEYKGKGNPEVEALYEEAVAIDEELYAYRHN", "ELISA_avg": 4.1}, {"binder": "SEQ ID NO: 590 (designed binder, D domain, on phage) MGSWEEFLFRLEAIQDRLWALGGSEAELAWFEYEIASFEDVLQSYKGKGNPEVEALSTEAKAIDYELFAYRHN", "ELISA_avg": 8.2}, {"binder": "SEQ ID NO: 567 (designed binder, D domain, on phage) MGSWYEFWDRLTAIEHRLWALGGSEAELAYFEDSIAHFEGSLQVYKGKGNPEVEALYKEAEAIEWELEAYRHN", "ELISA_avg": 4.4}, {"binder": "SEQ ID NO: 596 (designed binder, D domain, on phage) MGSWIEFDERLDAIDFRLWALGGSEAELAWFEGWIAEFESDLQLYKGKGNPEVEALNEEANAIFHELSAYRHN", "ELISA_avg": 7}, {"binder": "SEQ ID NO: 593 (designed binder, D domain, on phage) MGSWFEFDARLMAINDRLWALGGSEAELAAFEYHIALFEDQLQMYKGKGNPEVEALTLEAVAINEELWAYRHN", "ELISA_avg": 4}, {"binder": "SEQ ID NO: 576 (designed binder, D domain, on phage) MGSWMEFEDRLIAIWARLDALGGSEAELAWFEADIADFEESLQEYKGKGNPEVEALIFEAIAINKELMAYRHN", "ELISA_avg": 3.7}, {"binder": "SEQ ID NO: 561 (designed binder, D domain, on phage) MGSWNEFLLRLDAIEHRLFALGGSEAELAEFEWEIADFEDDLQWYKGKGNPEVEALVEEAEAIDVELVAYRHN", "ELISA_avg": 3.2}, {"binder": "SEQ ID NO: 565 (designed binder, D domain, on phage) MGSWFEFDQRLDAITFRLWALGGSEAELAEFEDVIALFEYHLQDYKGKGNPEVEALEVEAWAIFHELGAYRHN", "ELISA_avg": 3.2}, {"binder": "SEQ ID NO: 595 (designed binder, D domain, on phage) MGSWTEFDERLDAIDWRLEALGGSEAELAWFEGDIALFEQYLQVYKGKGNPEVEALMEEADAIKAELDAYRHN", "ELISA_avg": 4.5}, {"binder": "SEQ ID NO: 587 (designed binder, D domain, on phage) MGSWIEFEDRLDAITDRLWALGGSEAELAEFEHQIAFFEEDLQWYKGKGNPEVEALHMEAEAIMEELGAYRHN", "ELISA_avg": 9.5}, {"binder": "SEQ ID NO: 599 (designed binder, D domain, on phage) MGSWYEFQERLDAIDSRLWALGGSEAELAWFEYTIAEFEKELQMYKGKGNPEVEALGTEAVAISEELMAYRHN", "ELISA_avg": 5.5}, {"binder": "SEQ ID NO: 579 (designed binder, D domain, on phage) MGSWEEFDYRLYAIQDRLYALGGSEAELAFFEWEIADFEHMLQMYKGKGNPEVEALFQEADAIDAELHAYRHN", "ELISA_avg": 4.4}, {"binder": "SEQ ID NO: 562 (designed binder, D domain, on phage) MGSWYEFNMRLGAIDDRLQALGGSEAELAWFEDMIAIFEDDLQIYKGKGNPEVEALEQEAAAIHQELWAYRHN", "ELISA_avg": 3.8}, {"binder": "SEQ ID NO: 572 (designed binder, D domain, on phage) MGSWAEFDSRLIAIFDRLWALGGSEAELAWFEDDIAQFEQHLQAYKGKGNPEVEALRQEADAITFELKAYRHN", "ELISA_avg": 3.6}, {"binder": "SEQ ID NO: 566 (designed binder, D domain, on phage) MGSWSEFWFRLDAIEDRLWALGGSEAELAEFEDNIALFEYSLQHYKGKGNPEVEALVKEANAIDDELGAYRHN", "ELISA_avg": 4.5}, {"binder": "SEQ ID NO: 585 (designed binder, D domain, on phage) MGSWYEFEERLDAIEDRLIALGGSEAELAIFEDIIAFFEQDLQYYKGKGNPEVEALEMEAEAISIELDAYRHN", "ELISA_avg": 4.1}, {"binder": "SEQ ID NO: 589 (designed binder, D domain, on phage) MGSWEEFEDRLFAIDSRLWALGGSEAELAEFENIIASFEEVLQEYKGKGNPEVEALSVEAFAIDRELGAYRHN", "ELISA_avg": 3.7}, {"binder": "SEQ ID NO: 568 (designed binder, D domain, on phage) MGSWYEFDDRLWAIFDRLFALGGSEAELAFFEDSIAEFEEELQHYKGKGNPEVEALYLEAWAIENELGAYRHN", "ELISA_avg": 4.7}, {"binder": "SEQ ID NO: 573 (designed binder, D domain, on phage) MGSWTEFEERLEAIWDRLYALGGSEAELAAFEWDIAYFEDGLQEYKGKGNPEVEALFMEAEAIIRELKAYRHN", "ELISA_avg": 5.9}, {"binder": "SEQ ID NO: 569 (designed binder, D domain, on phage) MGSWNEFVERLSAIDHRLWALGGSEAELADFEQQIAEFEIHLQEYKGKGNPEVEALDFEADAIFDELLAYRHN", "ELISA_avg": 3.2}, {"binder": "SEQ ID NO: 571 (designed binder, D domain, on phage) MGSWAEFDSRLDAIAQRLFALGGSEAELAHFEDFIAQFEYSLQEYKGKGNPEVEALSNEADAIFNELKAYRHN", "ELISA_avg": 3.6}, {"binder": "SEQ ID NO: 598 (designed binder, D domain, on phage) MGSWYEFDERLDAIFDRLWALGGSEAELAYFEQVIATFEKTLQRYKGKGNPEVEALDTEAKAISWELDAYRHN", "ELISA_avg": 3}, {"binder": "SEQ ID NO: 594 (designed binder, D domain, on phage) MGSWVEFDSRLAAIDYRLEALGGSEAELAWFEYTIANFEHTLQMYKGKGNPEVEALVYEAHAIATELQAYRHN", "ELISA_avg": 3.4}, {"binder": "SEQ ID NO: 586 (designed binder, D domain, on phage) MGSWHEFEKRLYAIEDRLIALGGSEAELAWFEDSIAWFEWDLQMYKGKGNPEVEALNEEADAIYQELDAYRHN", "ELISA_avg": 3.6}, {"binder": "SEQ ID NO: 558 (designed binder, D domain, on phage) MGSWNEFYERLEAIDRRLFALGGSEAELALFEWMIADFEDDLQMYKGKGNPEVEALINEAGAIGFELEAYRHN", "ELISA_avg": 5.2}, {"binder": "SEQ ID NO: 577 (designed binder, D domain, on phage) MGSWFEFTIRLEAIQDRLDALGGSEAELAWFEWDIAEFEEGLQFYKGKGNPEVEALHTEADAIMNELVAYRHN", "ELISA_avg": 3.5}, {"binder": "SEQ ID NO: 574 (designed binder, D domain, on phage) MGSWYEFEDRLAAIWDRLNALGGSEAELAIFEWDIAWFEEGLQEYKGKGNPEVEALKHEASAIQTELFAYRHN", "ELISA_avg": 6.4}, {"binder": "SEQ ID NO: 588 (designed binder, D domain, on phage) MGSWMEFEDRLMAIVDRLWALGGSEAELADFEWNIAMFEEELQWYKGKGNPEVEALGDEAEAIEWELYAYRHN", "ELISA_avg": 6.8}, {"binder": "SEQ ID NO: 578 (designed binder, D domain, on phage) MGSWYEFVSRLDAIEYRLWALGGSEAELAWFEWDIADFEQGLQFYKGKGNPEVEALAQEANAIGSELTAYRHN", "ELISA_avg": 3.2}, {"binder": "SEQ ID NO: 575 (designed binder, D domain, on phage) MGSWLEFESRLWAIWDRLDALGGSEAELAHFEQDIADFEMSLQEYKGKGNPEVEALIREAEAIETELYAYRHN", "ELISA_avg": 3.4}, {"binder": "SEQ ID NO: 563 (designed binder, D domain, on phage) MGSWEEFHWRLGAIDARLEALGGSEAELAWFEDGIADFEAILQDYKGKGNPEVEALDSEAVAIHHELWAYRHN", "ELISA_avg": 3.3}, {"binder": "SEQ ID NO: 584 (designed binder, D domain, on phage) MGSWHEFEERLMAIEDRLWALGGSEAELAEFEQWIALFEYDLQEYKGKGNPEVEALGMEAFAINNELSAYRHN", "ELISA_avg": 5.8}, {"binder": "SEQ ID NO: 582 (designed binder, D domain, on phage) MGSWFEFEYRLDAIIDRLFALGGSEAELAEFESMIANFEYSLQEYKGKGNPEVEALYFEADAIVDELTAYRHN", "ELISA_avg": 4}, {"binder": "SEQ ID NO: 564 (designed binder, D domain, on phage) MGSWYEFYERLWAIDDRLWALGGSEAELAEFEDSIATFEPSLQMYKGKGNPEVEALVAEAWAIFDELAAYRHN", "ELISA_avg": 3.6}, {"binder": "SEQ ID NO: 591 (designed binder, D domain, on phage) MGSWVEFDNRLFAIDERLWALGGSEAELAWFEEEIASFEDNLQKYKGKGNPEVEALQLEAFAIMEELDAYRHN", "ELISA_avg": 3.3}, {"binder": "SEQ ID NO: 560 (designed binder, D domain, on phage) MGSWVEFIMRLDAIYERLDALGGSEAELAEFEWHIADFEDHLQWYKGKGNPEVEALFEEADAIWEELWAYRHN", "ELISA_avg": 6.4}, {"binder": "SEQ ID NO: 559 (designed binder, D domain, on phage) MGSWTEFTQRLEAIVDRLFALGGSEAELAEFENSIADFEWDLQWYKGKGNPEVEALNREAVAIDNELWAYRHN", "ELISA_avg": 3.9}]}]}
